The assay deals with T1, recombinant, frog ferritin H protein nanocages (wild type) (Aquarana catesbeiana, UniProt P07229).
T1 construct: made in house
T1 sequence (P07229 1-176): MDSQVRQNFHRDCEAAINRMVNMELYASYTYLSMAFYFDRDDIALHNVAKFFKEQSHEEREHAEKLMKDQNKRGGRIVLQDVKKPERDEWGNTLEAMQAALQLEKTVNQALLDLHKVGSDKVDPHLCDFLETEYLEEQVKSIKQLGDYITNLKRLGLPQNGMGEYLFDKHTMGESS
The assay can be described thus: Ferritin demineralization: formation of Fe2+-bipyridyl after adding NADH/FMN. In kind it is biochemical. The note with it: for Initial rate of Fe^2+ bipyridyl formation, pH = 7.0: 2.5 mM FMN, 2.5 mM NADH, 2.5 mM bipyridyl, absorbance 522 nm. From the text: The effect of the test agent on demineralization (e.g., on release of iron from ferritin) is generally carried out by contacting the test agent with ferritin in the presence of a reductant and an iron chelating agent such as bipyridyl or desferrioxamine. A suitable reductant comprises nicotinamide adenine dinucleotide reduced form (NADH) and flavin mononucleotide (FMN). The reductant reduces Fe(III) to Fe(II); and the iron chelating agent forms a complex with the Fe(II). Iron release from ferritin can be measured using any convenient method, including methods known in the art. The following is a non-limiting example of a suitable method. In this example, iron release from ferritin is measured by the formation of Fe(II)-bipyridyl. Iron release can be initiated by the addition of 2.5 mM bipyridyl, 2.5 mM FMN, and 2.5 mM NADH to ferritin in 0.1 M MOPS (pH 7.0) and 0.2 M NaCl. Formation of Fe(II)-bipyridyl is detected by measuring absorbance at 522 nm. See, e.g. Liu et al. (2003) Proc. Natl. Acad. Sci. USA 100:3653; and Takagi et al. (1998) J. Biol. Chem. 273:18685. Desferrioxamine can also be used as an iron chelator. See, e.g., Breuer et al. (2001) Blood 97:792.
The strategy used to identify molecules that would modulate ferritin protein nanocage pore function had two components: (i) searching a combinatorial peptide library for ferritin binding peptides, and (ii) analyzing the effect of reductants on the ferritin mineral inside the protein nanocages. Peptides were selected as the molecules of choice for pore alterations because of the selectivity of urea (1 mM) and guanidine (0.1 mM) in pore unfolding, observed previously. Liu and Theil (2003) Proc. Natl. Acad. Sci. U.S.A. 100:3653. Changes in ferritin protein nanocage pore gating can be analyzed as changes in the rate of ferritin iron demineralization, measured as formation of colored Fe chelates, when reductant (NADH/FMN) is added. Jones et al. (1978) Biochemistry 17:4011.
The peptides were mixed with wild type ferritin; demineralization was initiated by addition of NADH/FMN, and the appearance of Fe^2+-bipyridyl measured (FIG. 2). Three of the peptides (2, 3, and 5) had no effect on rates of formation of Fe^2+-bipyridyl, compared to wild type ferritin H protein nanocages, while Peptide 4 (Group B, eluted with ferritin H protein nanocages, after elution with ferritin H-L134P protein nanocages) decreased the rate 63%. Peptide 4 has 3 His and 1 Asp and could bind to charged residues around the pore. The peptide interaction with ferritin protein nanocage could interfere with unfolding and/or reductant access to the ferric mineral, or might induce conformational changes at the pore or elsewhere.
FIG. 2. Effect of binding peptides on removal of iron from the ferritin mineral. Demineralization of ferritin (recombinant, frog ferritin H protein nanocages; protein: 2.06 μM; Fe: 0.99 mM, MOPS: 100 mM, NaCl: 100 mM, pH 7.0) was initiated with reductant (final concentration: 2.5 mM FMN, 2.5 mM NADH), with bipyridyl (2.5 mM); formation of Fe^2+-bipyridyl was monitored at 522 nm. Initial reaction rates were calculated as described previously (Liu et al. (2003) Proc. Natl. Acad. Sci. USA 100:3653). Ferritin binding peptides, identified in a combinatorial, heptapeptide, phage-display library (1.3×10^9 members, New England Biolabs), were mixed with mineralized ferritin protein nanocages for one hour before initiating demineralization. Peptide 2 (Group A, eluted with H-L134P ferritin protein nanocage) and Peptides 3 and 5 (Group B, eluted with wild type ferritin protein nanocage), had no effect. The data are averages from triplicates in 2-5 independent experiments with two different protein preparations; the error is the standard deviation. […]

The mark [1] stands for this setting: compared to wild type ferritin H protein nanocages without peptide.

No end group written: not given here.

As for HSNTYYFPKGG (SEQ ID NO:7) [Peptide 1], the “Initial rate of Fe^2+ bipyridyl formation, pH = 7.0” value (H-wt ferritin + peptide) is reported as 6.80 ± 0.37 (mMol) × 10^3S^−1. For the same substance, the “Rate Change with Temperature (Arrhenius equation) E‡” value (Table 1, H-wt ferritin + peptide) turned out to be 79.8 ± 2.6 kJ/mol. Further, the “E‡ in the Arrhenius plot” value (wild type ferritin complexed with peptide, FIG. 2B) stood at 87.2 kJ/mol.

Consider “HHALGGS (SEQ ID NO:6) (HHALGGSGG; not fully specified (N-terminus)) [Peptide 5, heptapeptide from the phage display library, synthesized as an undecapeptide with HS at the N-terminus and GG at the C-terminus]”, for which, under setting [1], the “Effect on rates of formation of Fe^2+-bipyridyl” value (shortened to “Effect on rates”) was “no effect”.

With “SHTSPSI (SEQ ID NO:4) (SHTSPSIGG; not fully specified (N-terminus)) [Peptide 2, heptapeptide from the phage display library, synthesized as an undecapeptide with HS at the N-terminus and GG at the C-terminus]”, under setting [1], the “Effect on rates” value was “no effect”. On to HSHHALDGSGG (SEQ ID NO:2) [Peptide 4], for which the “Initial rate of Fe^2+ bipyridyl formation, pH = 7.0” value (H-wt ferritin + peptide) is listed as 0.41 ± 0.05 (mMol) × 10^3S^−1. Also, the “Decrease of the rate of formation of Fe^2+-bipyridyl” value under setting [1] was determined as 63%.

With “GDWYLGD (SEQ ID NO:5) (GDWYLGDGG; not fully specified (N-terminus)) [Peptide 3, heptapeptide from the phage display library, synthesized as an undecapeptide with HS at the N-terminus and GG at the C-terminus]”, under setting [1], the “Effect on rates” value was “no effect”.

Source of the values: patent US8143372B2, “Synthetic regulators of ferritin protein nanocage pores and methods of use thereof” (Children's Hospital & Research Center Oakland, priority 2007, dated 2012).
